Test results taken from US20210017278A1 (PROTHENA BIOSCIENCES, published 2021).

What was measured:
Test in all cases: ELISA, peptide coated on plate, HRP secondary, A490
[1] = target: T1, peptide AEDS (SEQ ID NO: 20)
T1 construct: Coated on ELISA plates; also called X1EDX2 peptide
T1 peptide: AEDS
Source text: (§1) ELISA plates were coated with indicated peptides, blocked, and assayed with either NEOD001 or 2A4, as indicated. After washing, appropriate horseradish peroxidase-conjugated secondary antibodies were applied. The plate was then washed and developed with o-phenylenediamene, and absorbance was read at 490 nm.
(§2) ELISA plates were coated with peptides having the amino acid sequence HEDT (SEQ ID NO: 19), AEDS (SEQ ID NO: 20), or HGDT (SEQ ID NO: 21), blocked, and assayed with either NEOD001 (an antibody with a light chain having the amino sequence set forth as SEQ ID NO: 13 and a heavy chain having the amino acid sequence set forth as SEQ ID NO: 14) or 2A4 (ATCC Accession Number 9662), as indicated. After washing, appropriate horseradish peroxidase-conjugated secondary antibodies were applied. The plate was then washed and developed with o-phenylenediamene, and absorbance was read at 490 nm.

[2] = target: T2, peptide HGDT (SEQ ID NO: 21)
T2 construct: Coated on ELISA plates; also called X1GDX2 peptide
T2 peptide: HGDT
Source text: as §1, §2

[3] = target: T3, peptide HEDT (SEQ ID NO: 19)
T3 construct: Coated on ELISA plates; also called X1EDX2 peptide
T3 peptide: HEDT
Source text: as §1, §2

Measured: binding result

B1: NEOD001 (antibody, human IgG1, kappa, V domains shown)
VH: EVQLVESGGGLVQPGGSLRLSCAASGFTFNTYAMYWIRQAPGKGLEWVARIRSKSNNYAIYYADSVKDRFTISRDDSKNSLYLQMNSLKTEDTAVYYCARPYSDSFAYWGQGTLVTVSS
VL: DVVMTQSPLSLPVTPGEPASISCRSSQSLVHSTGNTYLHWYLQKPGQSPQLLIYKVSNRFSGVPDRFSGSGSGTDFTLKISRVEAEDVGVYYCSQSTHVPFTFGGGTKVEIKR
notes: It shares the CDRs of murine antibody 2A4; also called humanized version of antibody 2A4
binds: all assays above
